Where two headings read alike, the source gives them in different places.
Experiments:
Test in all cases: FRET or BRET
[1] = biological target: P14 TCR vβ8 chain
[2] = biological target: P14 TCR vβ8 chain; remark: listed apart in the source
[3] = biological target: OT-I TCR vβ5 chain
[4] = biological target: P14 TCR vβ8 chain; remark: listed apart in the source
[5] = biological target: P14 TCR vβ8 chain; remark: listed apart in the source
[6] = biological target: P14 TCR vβ8 chain; remark: listed apart in the source
[7] = biological target: OT-I TCR vβ5 chain; remark: listed apart in the source
[8] = biological target: P14 TCR vβ8 chain; remark: listed apart in the source
[9] = biological target: OT-I TCR vβ5 chain; remark: listed apart in the source
[10] = biological target: P14 TCR vβ8 chain; remark: listed apart in the source
[11] = biological target: OT-I TCR vβ5 chain; remark: listed apart in the source

Substance | FRET efficiency [1] [%] | FRET efficiency [2] [%] | FRET efficiency [3] [%] | FRET efficiency [4] [%] | FRET efficiency [5] [%] | FRET efficiency [6] [%] | FRET efficiency [7] [%] | FRET efficiency [8] [%] | FRET efficiency [9] [%] | FRET efficiency [10] [%] | FRET efficiency [11] [%]
P14 TCR vα2 chain with two N-terminal myc tags | 10 | 26 | 28 | 35 | 27 | 19 | 12 | 23.3 | 12 | 27 | –
OT-I TCR vα2 chain with N-terminal HA tag | 16 | – | – | – | – | 21 | 25 | 22.6 | 32.5 | – | 33.7

From PMC4209802
